Substrate: CC(=O)SCCNC(=O)CCNC(=O)[C@H](O)C(C)(C)COP(=O)(O)OP(=O)(O)OC[C@H]1O[C@@H](n2cnc3c(N)ncnc32)[C@H](O)[C@@H]1OP(=O)(O)O
Assay: CPM fluorescence detection of released CoA-SH, initial rates
Assay type: biochemical, Escherichia coli
Conditions: malonyl-ACP 80 µM (about 40% pure; table note 75 µM), 20 mM phosphate, 50 mM KCl, 1 mg/ml BSA, pH 7.0, 30°C
Source text: CPM fluorescence detection of released CoA-SH, initial rates on FabH (β-ketoacyl-ACP synthase III; keto-acylsynthase III)

B1: FabH (β-ketoacyl-ACP synthase III; keto-acylsynthase III) (Escherichia coli K-12) (protein)
chain: MYTKIIGTGSYLPEQVRTNADLEKMVDTSDEWIVTRTGIRERHIAAPNETVSTMGFEAATRAIEMAGIEKDQIGLIVVATTSATHAFPSAACQIQSMLGIKGCPAFDVAAACAGFTYALSVADQYVKSGAVKYALVVGSDVLARTCDPTDRGTIIIFGDGAGAAVLAASEEPGIISTHLHADGSYGELLTLPNADRVNPENSIHLTMAGNEVFKVAVTELAHIVDETLAANNLDRSQLDWLVPHQANLRIISATAKKLGMSMDNVVVTLDRHGNTSAASVPCALDEAVRDGRIKPGQLVLLEAFGGGFTWGSALVRF
notes: purified by anion exchange, blue sepharose and S200 columns, as described previously; no tag mentioned
Km: 60 ± 20 µM
